From patent US20100008928A1 (Takeda / Millennium, published 2010)
Substitutions are numbered along the chain they refer to. Each block holds one binder with its values, some of them ahead of it.

Assays:
Assay in all cases: FCM
[1] = biological target: T1, human nectin-1 protein (human, UniProt Q15223 31-517)
T1 construct: transient in CHO-K1 from pCMV-Tag4-Nectin-1
T1 sequence: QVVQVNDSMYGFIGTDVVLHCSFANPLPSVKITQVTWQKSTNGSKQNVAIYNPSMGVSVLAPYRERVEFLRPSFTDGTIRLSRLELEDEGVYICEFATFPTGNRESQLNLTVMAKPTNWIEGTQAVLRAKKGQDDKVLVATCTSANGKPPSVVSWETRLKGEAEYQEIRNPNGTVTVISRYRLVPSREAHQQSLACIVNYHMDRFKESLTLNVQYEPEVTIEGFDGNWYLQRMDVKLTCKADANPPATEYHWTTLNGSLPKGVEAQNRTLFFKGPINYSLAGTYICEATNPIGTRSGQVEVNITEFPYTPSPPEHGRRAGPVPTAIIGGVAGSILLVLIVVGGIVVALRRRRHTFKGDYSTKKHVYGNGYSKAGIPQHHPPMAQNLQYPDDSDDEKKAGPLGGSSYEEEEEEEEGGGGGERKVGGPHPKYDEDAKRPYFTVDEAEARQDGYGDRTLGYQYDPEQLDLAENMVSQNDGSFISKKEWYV
Method: (§1) Specifically, CHO-K1 cell line was incubated in a T75 flask charged with a medium mixture of DMEM and F-12 in equivalent volumes (Invitrogen) supplmented with 10% FBS (JRH) at 37° C. for 1 to 2 days in a 5% carbon dioxide gas flow. […] Four hours after the transfection, the medium for the CHO-K1 cells was exchanged with a fresh aliquot of the medium described above, followed by incubation for further 2 days. These cells were washed twice with D-PBS, detached by Cell Dissociation Buffer, enzyme-free, PBS-based (Invitrogen) and resuspended in D-PBS (−) containing 1% FBS and 0.1% sodium azide (hereinafter referred to as FCM buffer) at a density of 5×10⁶ cells/mL. […] After 200 μL of FCM buffer was added to each well and washed once by centrifugal operation, 50 μL/well of Alexa488-labeled secondary antibody diluted in FCM buffer to 10 μg/mL was added for suspension, which was then reacted on ice for an hour.

[2] = biological target: T2, human nectin-4 protein (human, UniProt Q96NY8 32-510)
T2 construct: transient in CHO-K1 from pCMV-Tag4-Nectin-4
T2 sequence: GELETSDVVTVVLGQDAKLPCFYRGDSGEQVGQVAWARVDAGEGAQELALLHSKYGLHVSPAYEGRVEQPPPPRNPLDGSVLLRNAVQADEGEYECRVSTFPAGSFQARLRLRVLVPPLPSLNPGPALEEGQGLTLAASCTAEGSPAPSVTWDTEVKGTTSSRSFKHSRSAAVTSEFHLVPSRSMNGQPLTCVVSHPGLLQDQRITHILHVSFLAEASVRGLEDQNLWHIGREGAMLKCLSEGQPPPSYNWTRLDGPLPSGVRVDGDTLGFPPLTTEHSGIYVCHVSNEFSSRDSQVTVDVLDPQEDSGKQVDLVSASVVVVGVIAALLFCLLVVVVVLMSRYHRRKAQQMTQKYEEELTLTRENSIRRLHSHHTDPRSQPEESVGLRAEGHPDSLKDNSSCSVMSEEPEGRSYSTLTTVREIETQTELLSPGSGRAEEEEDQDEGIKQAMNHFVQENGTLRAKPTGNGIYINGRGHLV
Method: as §1

[3] = biological target: T3, human Nec1-5 protein (human, UniProt P15151 21-417)
T3 construct: transient in CHO-K1 from pCMV-Tag4-Nec1-5; also called Necl-5
T3 sequence: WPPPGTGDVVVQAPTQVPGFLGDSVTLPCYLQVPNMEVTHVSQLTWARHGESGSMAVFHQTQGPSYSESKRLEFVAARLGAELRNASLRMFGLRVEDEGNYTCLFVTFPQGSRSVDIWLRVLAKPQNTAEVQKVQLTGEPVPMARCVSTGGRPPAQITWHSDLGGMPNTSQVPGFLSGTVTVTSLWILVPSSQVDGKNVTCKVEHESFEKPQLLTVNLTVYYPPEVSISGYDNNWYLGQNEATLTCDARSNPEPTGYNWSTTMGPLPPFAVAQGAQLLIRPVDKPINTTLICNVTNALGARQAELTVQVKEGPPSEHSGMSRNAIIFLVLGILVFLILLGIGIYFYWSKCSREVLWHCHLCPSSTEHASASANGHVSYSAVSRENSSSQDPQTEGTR
Method: as §1

[4] = biological target: T4, nectin-2 Ig2 domain-deficient protein (human, UniProt Q92692 32-538)
T4 construct: transient in CHO-K1; also called delta-Ig2; Nectin-2ΔIg2
T4 sequence: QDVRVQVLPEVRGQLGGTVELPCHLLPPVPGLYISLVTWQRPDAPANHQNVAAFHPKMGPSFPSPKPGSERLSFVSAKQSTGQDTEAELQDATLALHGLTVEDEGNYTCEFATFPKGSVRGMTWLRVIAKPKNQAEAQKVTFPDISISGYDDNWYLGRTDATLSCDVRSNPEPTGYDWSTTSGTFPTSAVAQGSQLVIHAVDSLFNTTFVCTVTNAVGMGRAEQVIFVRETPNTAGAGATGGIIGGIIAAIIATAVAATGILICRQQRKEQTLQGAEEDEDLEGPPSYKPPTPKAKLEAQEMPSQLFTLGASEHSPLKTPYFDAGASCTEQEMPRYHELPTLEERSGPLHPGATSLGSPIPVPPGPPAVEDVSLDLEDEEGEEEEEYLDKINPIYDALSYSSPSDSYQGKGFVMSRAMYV
Method: (§2) After 200 μL of FCM buffer was added to each well and washed once by centrifugal operation, 50 μL each of Alexa488-labeled secondary antibody diluted in FCM buffer to 10 μg/mL was added to and mixed therewith, and the mixture was then reacted on ice for an hour. The Alexa488-labeled secondary antibody used was Alexa Fluor488 goat anti-human IgG (H+L) for the human antibodies and Alexa Fluor488 goat anti-rabbit IgG (H+L) (Invitrogen) for the rabbit antibody. The cells in each well were washed twice with FCM buffer and then resuspended in 250 μL of FCM buffer. Using the flow cytometer MPL500 (BECKMAN COULTER), the fluorescence intensity of stained cells was measured to determine the ratio of the median value of fluorescence intensities of the respective antibodies in the primary antibody group to the median value of fluorescence intensities in the negative control group.

[5] = biological target: T5, nectin-2 Ig1 domain-deficient protein (human, UniProt Q92692 32-538)
T5 construct: transient in CHO-K1; also called delta-Ig1; Nectin-2ΔIg1
T5 sequence: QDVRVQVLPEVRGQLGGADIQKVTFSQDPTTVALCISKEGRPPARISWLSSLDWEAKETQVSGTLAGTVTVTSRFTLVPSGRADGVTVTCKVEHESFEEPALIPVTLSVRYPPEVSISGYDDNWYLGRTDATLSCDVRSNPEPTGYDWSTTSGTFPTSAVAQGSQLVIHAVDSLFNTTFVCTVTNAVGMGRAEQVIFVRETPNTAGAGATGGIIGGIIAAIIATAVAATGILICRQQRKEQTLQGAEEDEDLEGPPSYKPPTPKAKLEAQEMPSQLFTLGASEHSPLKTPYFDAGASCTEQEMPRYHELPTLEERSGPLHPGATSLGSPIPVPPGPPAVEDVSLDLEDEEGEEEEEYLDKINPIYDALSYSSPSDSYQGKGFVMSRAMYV
Method: as §2

binding result [1]: no binding (tested: 6 µg/mL) | binding result [2]: no binding (tested: 6 µg/mL) | binding result [3]: no binding (tested: 6 µg/mL)
B1: Nec1-803-2 (antibody, human IgG1, V domains shown)
VH: QVQLQESGPGLVKPSETLSLTCTVSGGSISSYYWTWIRQPPGKGLEWIGYIYYSGSTNSNPSLKSRVTISVDTSKNQFSLKLSSVTAADTAVYYCTRDPGEDYNYGMDVWGQGTTVTVSS
VL: AIQLTQSPSSLSASVGDRVTITCRASQGISSALAWYQQKPGKAPKLLIYDASSLESGVPSRFSGSGSGTDFTLTISSLQPEDFATYYCQQFNSYPRTFGQGTKVEIK

binding result [1]: no binding (tested: 6 µg/mL) | binding result [2]: no binding (tested: 6 µg/mL) | binding result [3]: no binding (tested: 6 µg/mL)
B2: Nec1-834-1 (antibody, human IgG1, V domains shown)
VH: B1 VH with G26S, G27A, T35S, S59Y, V71I, T96A, P99A, N104S
VL: AIQLTQSPSSLSASVGDRVTITCRASQGISSALAWYQQKPGKAPKLLIYDASSLESGVPSRFSGSGSGTDFTLTISSLQPEDFATYYCQQFNSYRTFGQGTKVEIK
notes: human IgG1/k from hybridoma FERM BP-10428

median fluorescence ratio [5]: 4.3
B3: Nec1-554-1 SP3 (antibody, V domains shown)
VH: EVQLVESGGGLVKPGGSLRLSCAASGFTFSSYNMNWVRQAPGKGLEWVSSISSSSSYIYYADSVKGRFTISRDNAKNSLYLQMNSLRAEDTAVYYCARDYYGSGTYYLFDYWGQGTLVTVSS
VL: EIVLTQSPDFQSVTPKEKVTITCRASQSIGSSLHWYQQKPDQSPKLLIKYASQSFSGVPSRFSGSGSGTDFTLTINSLEAEDAAAYYCHQSRSLPITFGQGTRLEIK
notes: also called antibody fraction (SP3)
binding result [4]: no binding (tested: ratio <2 = no reactivity; 6 µg/mL)
